Conditions in all cases: protein: ivt; chain copies: 2; label: 32P
Series [1] deals with T1, Zta (BZLF1, ZEBRA, EB1) (Epstein-Barr virus (B95-8 strain), UniProt P03206 1-245). Kind of series: EMSA; unmethylated; class III; EMSA with wheat germ in vitro translated Zta and 32P-labelled ds oligonucleotides; buffer, salt, pH and temperature not given (as in ref 39).
Series [2] has as its target T1, Zta (BZLF1, ZEBRA, EB1). The series can be described thus: EMSA; CpG methylated; EMSA with wheat germ in vitro translated Zta and 32P-labelled ds oligonucleotides; buffer, salt, pH and temperature not given (as in ref 39).
Series [3] addresses T1, Zta (BZLF1, ZEBRA, EB1). Kind of series: EMSA; EMSA with wheat germ in vitro translated Zta and 32P-labelled ds oligonucleotides; buffer, salt, pH and temperature not given (as in ref 39).

T1 sequence (P03206 whole entry): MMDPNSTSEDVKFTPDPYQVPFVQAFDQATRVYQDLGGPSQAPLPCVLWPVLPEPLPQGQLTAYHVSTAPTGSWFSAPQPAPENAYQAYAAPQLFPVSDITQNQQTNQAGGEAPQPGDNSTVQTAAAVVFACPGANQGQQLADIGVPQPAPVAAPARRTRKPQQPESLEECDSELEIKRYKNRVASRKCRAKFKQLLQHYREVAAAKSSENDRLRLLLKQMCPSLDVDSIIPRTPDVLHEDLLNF

B1: Rp (-114) / CpG5 O, unmethylated (dsDNA)
DNA 1: CACTCATACTTAAGCGATGCTGATGCA
DNA 2: TGCATCAGCATCGCTTAAGTATGAGTG
For the molecule B1, the binding result with Zta (BZLF1, ZEBRA, EB1) [1] is “no binding”.

B2: Rp (-114) / CpG5 O, methylated (dsDNA)
DNA 1: CACTCATACTTAAGCGATGCTGATGCA
DNA 2: TGCATCAGCATCGCTTAAGTATGAGTG
modifications: 5mC at CpG, both strands (M.SssI or synthesis)
B2: the binding result with Zta (BZLF1, ZEBRA, EB1) [2] is listed as “binds”.

B3: Zp (-96) (dsDNA)
DNA 1: TAAATTTAGGTGTGTCTATGAGGTACA
DNA 2: TGTACCTCATAGACACACCTAAATTTA
Take B3: the binding result with Zta (BZLF1, ZEBRA, EB1) [3] is “binds”.

Source of the values: article PMC3191170, “Epigenetic Control of Viral Life-Cycle by a DNA-Methylation Dependent Transcription Factor”.
